Laboratory results as given in patent US20250084142A1 (INTARCIA THERAPEUTICS, published 2025).
Blank lines part the entries; values can stand above or below the binder they belong to. Starred links: 1 amine or outer side, 2 acyl side, 3 side chain; linkers in the order of their positions; H or OH if unused. Non-standard residues stand in square brackets, D forms with d. Groups on a side chain read outwards from the residue. No end group written: not given here. *: point of attachment. C20 diacid = O=C(O)CCCCCCCCCCCCCCCCCCC(=O)*; Phe(4-F) = N[C@@H](Cc1ccc(F)cc1)C(=O)O; γGlu = O=C(O)[C@H](CCC(=O)[*:2])N[*:1]; NMeY = CN[C@@H](Cc1ccc(O)cc1)C(=O)O; hPhe = N[C@@H](CCc1ccccc1)C(=O)O

How the values were obtained:
NPY5R = target: T1, NPY5R; assay: cell-based or functional assay
T1 sequence (Q15761 1-445, species assumed, looked up): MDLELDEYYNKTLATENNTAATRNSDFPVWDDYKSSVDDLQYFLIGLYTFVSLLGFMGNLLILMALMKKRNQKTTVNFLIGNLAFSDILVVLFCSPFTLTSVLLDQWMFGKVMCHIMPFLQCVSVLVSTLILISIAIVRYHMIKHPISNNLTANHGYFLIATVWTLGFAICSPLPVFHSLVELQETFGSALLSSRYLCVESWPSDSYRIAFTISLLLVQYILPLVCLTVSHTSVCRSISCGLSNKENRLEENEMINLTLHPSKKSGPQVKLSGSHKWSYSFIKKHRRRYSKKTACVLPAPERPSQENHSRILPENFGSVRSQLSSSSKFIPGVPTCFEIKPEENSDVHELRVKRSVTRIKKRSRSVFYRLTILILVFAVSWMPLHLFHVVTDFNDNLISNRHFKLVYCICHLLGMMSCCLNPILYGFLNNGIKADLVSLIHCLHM

NPY2R = target: T2, NPY2R; assay: cell-based or functional assay
T2 sequence (P49146 1-381, species assumed, looked up): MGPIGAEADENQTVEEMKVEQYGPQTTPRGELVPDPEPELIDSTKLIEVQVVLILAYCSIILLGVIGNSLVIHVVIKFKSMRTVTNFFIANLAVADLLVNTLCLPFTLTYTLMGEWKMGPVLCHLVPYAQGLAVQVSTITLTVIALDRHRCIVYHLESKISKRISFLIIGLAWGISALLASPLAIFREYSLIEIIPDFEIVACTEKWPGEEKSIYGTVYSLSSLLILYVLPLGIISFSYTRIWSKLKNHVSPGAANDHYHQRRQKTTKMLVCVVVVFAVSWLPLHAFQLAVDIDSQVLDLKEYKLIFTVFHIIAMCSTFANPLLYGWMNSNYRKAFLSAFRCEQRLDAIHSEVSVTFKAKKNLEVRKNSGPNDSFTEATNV

B1: Compound A60 (peptide)
peptide: PKPEAPGK([γGlu-γGlu-C20 diacid])DASPEEWNRYYADLRHYLNWLTRQR[Phe(4-F)]-NH2
NPY5R pEC50 (NPY5R): 8.6 -Log(EC50, M)
NPY2R pEC50 (NPY2R): 10.3 -Log(EC50, M)

B2: Compound A61 (peptide)
peptide: PKPEAPGK([γGlu-γGlu-C20 diacid])DASPEEWNRYYADLRHYLNWLTRQR[hPhe]-NH2
NPY5R pEC50 (NPY5R): 8.3 -Log(EC50, M)
NPY2R pEC50 (NPY2R): 10 -Log(EC50, M)

B5: Compound A4 (peptide)
peptide: K([γGlu-γGlu-C20 diacid])PKPEAPGKDASPEEWNRYYADARHYLNWLTRQR[NMeY]-NH2
modifications: N-terminus assumed
SMILES: CC(C)C[C@H](NC(=O)[C@H](Cc1ccc(O)cc1)NC(=O)[C@H](Cc1c[nH]cn1)NC(=O)[C@H](CCCNC(=N)N)NC(=O)[C@H](C)NC(=O)[C@H](CC(=O)O)NC(=O)[C@H](C)NC(=O)[C@H](Cc1ccc(O)cc1)NC(=O)[C@H](Cc1ccc(O)cc1)NC(=O)[C@H](CCCNC(=N)N)NC(=O)[C@H](CC(N)=O)NC(=O)[C@H](Cc1c[nH]c2ccccc12)NC(=O)[C@H](CCC(=O)O)NC(=O)[C@H](CCC(=O)O)NC(=O)[C@@H]1CCCN1C(=O)[C@H](CO)NC(=O)[C@H](C)NC(=O)[C@H](CC(=O)O)NC(=O)[C@H](CCCCN)NC(=O)CNC(=O)[C@@H]1CCCN1C(=O)[C@H](C)NC(=O)[C@H](CCC(=O)O)NC(=O)[C@@H]1CCCN1C(=O)[C@H](CCCCN)NC(=O)[C@@H]1CCCN1C(=O)[C@@H](N)CCCCNC(=O)CC[C@H](NC(=O)CC[C@H](NC(=O)CCCCCCCCCCCCCCCCCCC(=O)O)C(=O)O)C(=O)O)C(=O)N[C@@H](CC(N)=O)C(=O)N[C@@H](Cc1c[nH]c2ccccc12)C(=O)N[C@@H](CC(C)C)C(=O)N[C@H](C(=O)N[C@@H](CCCNC(=N)N)C(=O)N[C@@H](CCC(N)=O)C(=O)N[C@@H](CCCNC(=N)N)C(=O)N(C)[C@@H](Cc1ccc(O)cc1)C(N)=O)[C@@H](C)O
NPY5R pEC50 (NPY5R): 7.3 -Log(EC50, M)
NPY2R pEC50 (NPY2R): 8.7 -Log(EC50, M)

B6: Compound A64 (peptide)
peptide: PKPEAPK([γGlu-γGlu-C20 diacid])KDASPEELNRYYADARHYLNWLTRQRF-NH2
modifications: N-terminus assumed
SMILES: CC(C)C[C@H](NC(=O)[C@H](Cc1ccc(O)cc1)NC(=O)[C@H](Cc1c[nH]cn1)NC(=O)[C@H](CCCNC(=N)N)NC(=O)[C@H](C)NC(=O)[C@H](CC(=O)O)NC(=O)[C@H](C)NC(=O)[C@H](Cc1ccc(O)cc1)NC(=O)[C@H](Cc1ccc(O)cc1)NC(=O)[C@H](CCCNC(=N)N)NC(=O)[C@H](CC(N)=O)NC(=O)[C@H](CC(C)C)NC(=O)[C@H](CCC(=O)O)NC(=O)[C@H](CCC(=O)O)NC(=O)[C@@H]1CCCN1C(=O)[C@H](CO)NC(=O)[C@H](C)NC(=O)[C@H](CC(=O)O)NC(=O)[C@H](CCCCN)NC(=O)[C@H](CCCCNC(=O)CC[C@H](NC(=O)CC[C@H](NC(=O)CCCCCCCCCCCCCCCCCCC(=O)O)C(=O)O)C(=O)O)NC(=O)[C@@H]1CCCN1C(=O)[C@H](C)NC(=O)[C@H](CCC(=O)O)NC(=O)[C@@H]1CCCN1C(=O)[C@H](CCCCN)NC(=O)[C@@H]1CCCN1)C(=O)N[C@@H](CC(N)=O)C(=O)N[C@@H](Cc1c[nH]c2ccccc12)C(=O)N[C@@H](CC(C)C)C(=O)N[C@H](C(=O)N[C@@H](CCCNC(=N)N)C(=O)N[C@@H](CCC(N)=O)C(=O)N[C@@H](CCCNC(=N)N)C(=O)N[C@@H](Cc1ccccc1)C(N)=O)[C@@H](C)O
NPY5R pEC50 (NPY5R): 7.9 -Log(EC50, M)
NPY2R pEC50 (NPY2R): 8.6 -Log(EC50, M)

B10: Compound A63 (peptide)
peptide: PKPEAPK([γGlu-γGlu-C20 diacid])KDASPEELNRYYADARHYLNWLTRQR[NMeY]-NH2
modifications: N-terminus assumed
SMILES: CC(C)C[C@H](NC(=O)[C@H](Cc1ccc(O)cc1)NC(=O)[C@H](Cc1c[nH]cn1)NC(=O)[C@H](CCCNC(=N)N)NC(=O)[C@H](C)NC(=O)[C@H](CC(=O)O)NC(=O)[C@H](C)NC(=O)[C@H](Cc1ccc(O)cc1)NC(=O)[C@H](Cc1ccc(O)cc1)NC(=O)[C@H](CCCNC(=N)N)NC(=O)[C@H](CC(N)=O)NC(=O)[C@H](CC(C)C)NC(=O)[C@H](CCC(=O)O)NC(=O)[C@H](CCC(=O)O)NC(=O)[C@@H]1CCCN1C(=O)[C@H](CO)NC(=O)[C@H](C)NC(=O)[C@H](CC(=O)O)NC(=O)[C@H](CCCCN)NC(=O)[C@H](CCCCNC(=O)CC[C@H](NC(=O)CC[C@H](NC(=O)CCCCCCCCCCCCCCCCCCC(=O)O)C(=O)O)C(=O)O)NC(=O)[C@@H]1CCCN1C(=O)[C@H](C)NC(=O)[C@H](CCC(=O)O)NC(=O)[C@@H]1CCCN1C(=O)[C@H](CCCCN)NC(=O)[C@@H]1CCCN1)C(=O)N[C@@H](CC(N)=O)C(=O)N[C@@H](Cc1c[nH]c2ccccc12)C(=O)N[C@@H](CC(C)C)C(=O)N[C@H](C(=O)N[C@@H](CCCNC(=N)N)C(=O)N[C@@H](CCC(N)=O)C(=O)N[C@@H](CCCNC(=N)N)C(=O)N(C)[C@@H](Cc1ccc(O)cc1)C(N)=O)[C@@H](C)O
NPY5R pEC50 (NPY5R): 6 -Log(EC50, M)
NPY2R pEC50 (NPY2R): 7.5 -Log(EC50, M)

More lines, now with the values ahead:

NPY5R pEC50 (NPY5R): 8.7 -Log(EC50, M)
NPY2R pEC50 (NPY2R): 10.4 -Log(EC50, M)
B3: Compound A70 (peptide)
peptide: PKPEKPGKDASPK([γGlu-γGlu-C20 diacid])EWNRYYKDLRHYLNWLTRQRF-NH2
modifications: N-terminus assumed
SMILES: CC(C)C[C@H](NC(=O)[C@H](CC(=O)O)NC(=O)[C@H](CCCCN)NC(=O)[C@H](Cc1ccc(O)cc1)NC(=O)[C@H](Cc1ccc(O)cc1)NC(=O)[C@H](CCCNC(=N)N)NC(=O)[C@H](CC(N)=O)NC(=O)[C@H](Cc1c[nH]c2ccccc12)NC(=O)[C@H](CCC(=O)O)NC(=O)[C@H](CCCCNC(=O)CC[C@H](NC(=O)CC[C@H](NC(=O)CCCCCCCCCCCCCCCCCCC(=O)O)C(=O)O)C(=O)O)NC(=O)[C@@H]1CCCN1C(=O)[C@H](CO)NC(=O)[C@H](C)NC(=O)[C@H](CC(=O)O)NC(=O)[C@H](CCCCN)NC(=O)CNC(=O)[C@@H]1CCCN1C(=O)[C@H](CCCCN)NC(=O)[C@H](CCC(=O)O)NC(=O)[C@@H]1CCCN1C(=O)[C@H](CCCCN)NC(=O)[C@@H]1CCCN1)C(=O)N[C@@H](CCCNC(=N)N)C(=O)N[C@@H](Cc1c[nH]cn1)C(=O)N[C@@H](Cc1ccc(O)cc1)C(=O)N[C@@H](CC(C)C)C(=O)N[C@@H](CC(N)=O)C(=O)N[C@@H](Cc1c[nH]c2ccccc12)C(=O)N[C@@H](CC(C)C)C(=O)N[C@H](C(=O)N[C@@H](CCCNC(=N)N)C(=O)N[C@@H](CCC(N)=O)C(=O)N[C@@H](CCCNC(=N)N)C(=O)N[C@@H](Cc1ccccc1)C(N)=O)[C@@H](C)O

NPY5R pEC50 (NPY5R): 8.3 -Log(EC50, M)
NPY2R pEC50 (NPY2R): 10.3 -Log(EC50, M)
B4: Compound A66 (peptide)
peptide: PKPEAPGK([γGlu-γGlu-C20 diacid])DKSPEEWNRYYKDLRHYLNWLTRQRF-NH2

NPY5R pEC50 (NPY5R): 8.3 -Log(EC50, M)
NPY2R pEC50 (NPY2R): 10 -Log(EC50, M)
B7: Compound A69 (peptide)
peptide: PKPEAPGK([γGlu-γGlu-C20 diacid])DASPEEWNRYKKDLRHYLNWLTRQRF-NH2

NPY5R pEC50 (NPY5R): 8.6 -Log(EC50, M)
NPY2R pEC50 (NPY2R): 10.3 -Log(EC50, M)
B8: Compound A73 (peptide)
peptide: PKPEAPGK([γGlu-γGlu-C20 diacid])DASPKEWNRYYKDLRHYLNWLTRQRF-NH2

NPY5R pEC50 (NPY5R): 8.8 -Log(EC50, M)
NPY2R pEC50 (NPY2R): 10.7 -Log(EC50, M)
B9: Compound A71 (peptide)
peptide: PKPEK([γGlu-γGlu-C20 diacid])PGKDASPKEWNRYYKDLRHYLNWLTRQRF-NH2
modifications: N-terminus assumed
SMILES: CC(C)C[C@H](NC(=O)[C@H](CC(=O)O)NC(=O)[C@H](CCCCN)NC(=O)[C@H](Cc1ccc(O)cc1)NC(=O)[C@H](Cc1ccc(O)cc1)NC(=O)[C@H](CCCNC(=N)N)NC(=O)[C@H](CC(N)=O)NC(=O)[C@H](Cc1c[nH]c2ccccc12)NC(=O)[C@H](CCC(=O)O)NC(=O)[C@H](CCCCN)NC(=O)[C@@H]1CCCN1C(=O)[C@H](CO)NC(=O)[C@H](C)NC(=O)[C@H](CC(=O)O)NC(=O)[C@H](CCCCN)NC(=O)CNC(=O)[C@@H]1CCCN1C(=O)[C@H](CCCCNC(=O)CC[C@H](NC(=O)CC[C@H](NC(=O)CCCCCCCCCCCCCCCCCCC(=O)O)C(=O)O)C(=O)O)NC(=O)[C@H](CCC(=O)O)NC(=O)[C@@H]1CCCN1C(=O)[C@H](CCCCN)NC(=O)[C@@H]1CCCN1)C(=O)N[C@@H](CCCNC(=N)N)C(=O)N[C@@H](Cc1c[nH]cn1)C(=O)N[C@@H](Cc1ccc(O)cc1)C(=O)N[C@@H](CC(C)C)C(=O)N[C@@H](CC(N)=O)C(=O)N[C@@H](Cc1c[nH]c2ccccc12)C(=O)N[C@@H](CC(C)C)C(=O)N[C@H](C(=O)N[C@@H](CCCNC(=N)N)C(=O)N[C@@H](CCC(N)=O)C(=O)N[C@@H](CCCNC(=N)N)C(=O)N[C@@H](Cc1ccccc1)C(N)=O)[C@@H](C)O

NPY5R pEC50 (NPY5R): 8.5 -Log(EC50, M)
NPY2R pEC50 (NPY2R): 10.3 -Log(EC50, M)
B11: Compound A67 (peptide)
peptide: PKPEAPGK([γGlu-γGlu-C20 diacid])DASPEKWNRYYKDLRHYLNWLTRQRF-NH2

NPY5R pEC50 (NPY5R): 7.9 -Log(EC50, M)
NPY2R pEC50 (NPY2R): 9.7 -Log(EC50, M)
B12: Compound A68 (peptide)
peptide: PKPEAPGK([γGlu-γGlu-C20 diacid])DASPEEWNRKYKDLRHYLNWLTRQRF-NH2
